According to patent publication US20150011431A1:

Biological target: CXCR1 (UniProt P25024)
Assay: cell-based or functional assay

Sequence of IL-8 (soluble cytokine) (P10145 28-99 limits assumed): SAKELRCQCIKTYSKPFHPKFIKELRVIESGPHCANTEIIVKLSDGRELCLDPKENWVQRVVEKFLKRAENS
Sequence of CXCR1 (P25024 whole entry): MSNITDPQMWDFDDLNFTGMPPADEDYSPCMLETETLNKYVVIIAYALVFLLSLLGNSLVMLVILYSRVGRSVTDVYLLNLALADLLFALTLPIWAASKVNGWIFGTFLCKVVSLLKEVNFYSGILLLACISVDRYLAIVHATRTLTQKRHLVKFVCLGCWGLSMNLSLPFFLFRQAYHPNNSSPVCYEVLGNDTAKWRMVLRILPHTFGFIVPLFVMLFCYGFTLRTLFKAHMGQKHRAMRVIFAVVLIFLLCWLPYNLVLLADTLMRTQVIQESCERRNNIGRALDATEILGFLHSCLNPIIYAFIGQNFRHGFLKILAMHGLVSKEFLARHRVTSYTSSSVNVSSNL

## IgG VH4-4 CDR3 BsaI (lacking the IL-8 insert) (antibody)
  average RLU at 0.001 nM IgG (beta-arrestin recruitment reporter, CXCR1-U2OS cells): 7500 RLU
  average RLU at 0.004 nM IgG (beta-arrestin recruitment reporter, CXCR1-U2OS cells): 7390 RLU
  average RLU at 0.013 nM IgG (beta-arrestin recruitment reporter, CXCR1-U2OS cells): 7050 RLU
  average RLU at 0.040 nM IgG (beta-arrestin recruitment reporter, CXCR1-U2OS cells): 6970 RLU
  average RLU at 0.120 nM IgG (beta-arrestin recruitment reporter, CXCR1-U2OS cells): 7330 RLU
  average RLU at 0.359 nM IgG (beta-arrestin recruitment reporter, CXCR1-U2OS cells): 6690 RLU
  average RLU at 1.076 nM IgG (beta-arrestin recruitment reporter, CXCR1-U2OS cells): 7180 RLU
  average RLU at 3.228 nM IgG (beta-arrestin recruitment reporter, CXCR1-U2OS cells): 7030 RLU
  average RLU at 9.685 nM IgG (beta-arrestin recruitment reporter, CXCR1-U2OS cells): 7170 RLU
  average RLU at 29.056 nM IgG (beta-arrestin recruitment reporter, CXCR1-U2OS cells): 7100 RLU
  average RLU at 87.167 nM IgG (beta-arrestin recruitment reporter, CXCR1-U2OS cells): 7140 RLU
  average RLU at 261.500 nM IgG (beta-arrestin recruitment reporter, CXCR1-U2OS cells): 7540 RLU

## IL-8 (soluble cytokine) (from UniProt P10145 28-99) (ligand)
  average RLU at 0.01 nM (beta-arrestin recruitment reporter, CXCR1-U2OS cells): 440 RLU
  average RLU at 0.08 nM (beta-arrestin recruitment reporter, CXCR1-U2OS cells): 504 RLU
  average RLU at 0.23 nM (beta-arrestin recruitment reporter, CXCR1-U2OS cells): 940 RLU
  average RLU at 0.69 nM (beta-arrestin recruitment reporter, CXCR1-U2OS cells): 1940 RLU
  average RLU at 2.06 nM (beta-arrestin recruitment reporter, CXCR1-U2OS cells): 4110 RLU
  average RLU at 6.17 nM (beta-arrestin recruitment reporter, CXCR1-U2OS cells): 5870 RLU
  average RLU at 18.52 nM (beta-arrestin recruitment reporter, CXCR1-U2OS cells): 7300 RLU
  average RLU at 31.5 nM (beta-arrestin recruitment reporter, CXCR1-U2OS cells): 55500 RLU
  average RLU at 55.56 nM (beta-arrestin recruitment reporter, CXCR1-U2OS cells): 7360 RLU
  average RLU at 166.67 nM (beta-arrestin recruitment reporter, CXCR1-U2OS cells): 6770 RLU
  average RLU at 500.00 nM (beta-arrestin recruitment reporter, CXCR1-U2OS cells): 5720 RLU
